Assay results reported in patent publication US20260258143A1 (published 2026).

T1: human CD25-extracellular domain (CD25-ECD) (UniProt P01589 22-240)
T1 chain: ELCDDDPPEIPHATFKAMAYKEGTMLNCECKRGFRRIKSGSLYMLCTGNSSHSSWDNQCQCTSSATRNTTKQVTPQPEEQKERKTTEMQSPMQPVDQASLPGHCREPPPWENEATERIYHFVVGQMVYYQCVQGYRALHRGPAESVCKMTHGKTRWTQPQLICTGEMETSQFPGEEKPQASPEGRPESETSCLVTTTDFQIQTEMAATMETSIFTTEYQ

B1: ODY-N1783Hu1 (antibody, V domains shown)
VH: EVQLLESGGGLAQPGGSLRLSCAASGFTFSNYAMSWARQAPGKGLEWVSGIYSDGSGTYYADSVKGRFTISRDNAKNTVYLQMNSLRPEDTAVYYCSKGARSGSYYPWDDVWGQGTQVTVSS
B2: ODY-48D11Hu1 (antibody, V domains shown)
VH: EVQLLESGGGLVQPGGSLRLSCAASGFTFSNYAMSWARQAPGKGLEWVSGIYSDGSGTYYADSVKGRFTISRDNAKNTVYLQMNSLRPEDTAVYYCAKGRNSGSYYPFDDYWGQGTQVTVSS
B3: ODY-48C10Hu1 (antibody, V domains shown)
VH: EVQLLESGGGLAQPGGSLRLSCAASGFTFSNYAMSWTRQAPGKGLEWVSGIYSDGSGTYYADSVKGRFTISRDNAKNTVYLQMNSLRPEDTAVYYCAKGRNSGSYYPFDDYWGQGTQVTVSS
B4: ODY-N1769Hu1 (antibody, V domains shown)
VH: EVQLLESGGGLAQPGGSLRLSCAASGFTFSNYAMSWVRQAPGKGLEWVSGIYSDGSGTYYADSVKGRFTISRDNAKNTVYLQMNSLRPEDTAVYYCSKGRHSGSYYPWDEYWGQGTQVTVSS
B5: ODY-N2024Hu1 (antibody, V domains shown)
VH: EVQLLESGGGLVQPGGSLRLSCAASGRTFSSYGMGWFRQAPGKEREFVAAISQSGGRTRYADSVKGRFTISRDNVKNTVYLQMNSLRPEDTAVYYCAATNFLIATTISAHDYWGQGTQVTVSS
B6: ODY-N2017Hu1 (antibody, V domains shown)
VH: EVQLLESGGGLVQPGGSLRLSCAASGRTFSSYGMGWFRQAPGKEREFVAAISQSGGRTRYADSVKGRFTISRDNAKNTVYLQMNSLRPEDTAVYYCAATNFLIAATISAYDYWGQGTQVTVSS
B7: ODY-N2022Hu1 (antibody, V domains shown)
VH: EVQLLESGGGLVQPGGSLRLSCAASGRTFSSYGMGWFRQAPGKEREFVAAISQSGGRTRYADSVKGRFTISRDNAKNTVYLQMNSLRPEDTAVYYCAATKFLIATTISAYDYWGQGTQVTVSS
B8: ODY-N2016Hu1 (antibody, V domains shown)
VH: EVQLLESGGGLVQPGGSLRLSCAASGRTFADFGMGWFRQAPGKEREFVAAISRSGGRTRYADSVKGRFTISRDDAKNTVYLQMNSLRPEDTAVYYCAASYFLLAITISGYDYWGQGTQVTVSS
B9: ODY-N2005Hu1 (antibody, V domains shown)
VH: EVQLLESGGGLVQPGGSLRLSCAASGRTFSSYGMGWFRQAPGKEREFVAAISQSGGRTRYADSVKGRFTISRDNAKNTVYLQMNSLRPEDTAVYYCAATNFLIATTISAYDYWGQGTQVTVSS
B10: ODY-N2011Hu1 (antibody, V domains shown)
VH: EVQLLESGGGLVQPGGSLRLSCAASGRTFASFGMGWFRQAPGKEREFVAAISQGGGRTRYADSVKGRFTISRDDAKNTVYLQMNSLRPEDTAVYYCAASYFLLATTISGYDYWGQGTQVTVSS
B11: ODY-N2010Hu1 (antibody, V domains shown)
VH: EVQLLESGGGLVQPGGSLRLSCAASGRTFSSYGMGWFRQAPGKEREFVVAISGSGGRTRYADSVKGRFTISRDNAKNTVYLQMNSLRPEDTAVYYCAASDFLIATSISAYDYWGQGTQVTVSS
B12: ODY-N2008Hu1 (antibody, V domains shown)
VH: EVQLLESGGGLVQPGGSLRLSCAASGRTFASFGMGWFRQAPGKEREFVAAISRGGGRTRYADSVKGRFTISRDDAKNTVYLQMNSLRPEDTAVYYCAASYFLLATTISGYDYWGQGTQVTVSS
B13: ODY-N1955Hu1 (antibody, V domains shown)
VH: EVQLVESGGGLVQPGGSLRLSCAASGRSFSTLIMAWYRQAPGKQRELVATIERGGTPTYADSVKGRFTISRDNAKNTVYLQMNSLRPEDTAVYYCNALGYWGQGTQVTVSS
B14: ODY-N1961Hu1 (antibody, V domains shown)
VH: EVQLVESGGGLVQPGGSLRLSCAASGRSFSTLIMAWYRQAPGKQRELVATIERGGTTTYADSVKGRFTASRDNAKNTVYLQMNSLRPEDTAVYYCNALGYWGQGTQVTVSS
B15: ODY-N1970Hu1 (antibody, V domains shown)
VH: EVQLVESGGGLVQPGGSLRLSCAASGRSFSTLIMGWYRQAPGKQRELVATIERGGTTTYADSVKGRFTISRDNAKNTVYLQMNSLRPEDTAVYYCNALLYWGQGTQVTVSS
B16: ODY-N2027Hu1 (antibody, V domains shown)
VH: EVQLLESGGGLVQPGGSLRLSCAASGRTFSSYGMGWFRQAPGKEREFVAAISQSGGRTRYADSVKGRFTISRDNAKNTVYLQMNSLRPEDTAVYYCAATNFLIATAISAYDYWGQGTQVTVSS
B17: ODY-N2025Hu1 (antibody, V domains shown)
VH: EVQLLESGGGLVQPGGSLRLSCAASGRTFSSYGMGWFRQAPGKEREFVAAISQSGGRTRYADSVKGRFTISRDNAKNTVYLQMNSLRPEDTAVYYCAATNVLIATTISAYDYWGQGTQVTVSS
B18: ODY-N2026Hu1 (antibody, V domains shown)
VH: EVQLLESGGGLVQPGGSLRLSCAASGRTFSSYGMGWFRQAPGKEREFVAAISQSGGRTRYADSVKGRFTISRDNAKNTVYLQMNSLRPEDTAVYYCAATNFPIATTISAYDYWGQGTQVTVSS
B19: 46A3 (VHH)
VHH: EVQLLESGGGLAQPGGSLRLSCAASGFTFSNYAMSWARQAPGKGLEWVSGIYSDGSGTYYADSVKGRFTISRDNAKNTVYLQMNSLRPEDTAVYYCAKGRNSGSYYPWDDYWGQGTQVTVSS
B20: ODY-N1974Hu1 (antibody, V domains shown)
VH: EVQLVESGGGLVQPGGSLRLSCAASGRKFSTLIMAWYRQAPGKQRELVATVDRGGTTTYADSVKGRFTISRDNAKNTTYLQMNSLRPEDTAVYYCNALRNWGQGTQVTVSS
B21: ODY-N1978Hu1 (antibody, V domains shown)
VH: EVQLVESGGGLVQPGGSLRLSCAASGRSFSTLIMGWYRQAPGKQRELVATIERGGTTTYADSVKGRFTISRDNAKNTVYLQMNSLRPEDTAVYYCNALRDWGQGTQVTVSS
B22: ODY-N1812Hu1 (antibody, V domains shown)
VH: EVQLLESGGGLAQPGGSLRLSCAASGFTFSNYAMSWARQAPGKGLEWVSGIYSDSSGTYYADSVKGRFTISRDNAKNTVYLQMNSLRPEDTAVYYCAKGRGSGGYYPFDDYWGQGTQVTVSS
B23: ODY-N1808Hu1 (antibody, V domains shown)
VH: EVQLLESGGGLAQPGGSLRLSCAASGFTFSNYAMSWVRQAPGKGLEWVSGIYSDGSGTYYADSVKGRFTISRDNAKNTVYLQMNSLRPEDTAVYYCATGKHSGSYYPWDDYWGQGTQVTVSS
B24: ODY-N1811Hu1 (antibody, V domains shown)
VH: EVQLLESGGGLAQPGGSLRLSCAASGFTFSNYAMSWARQAPGKGLEWVSGIYSDSSGTYYADSVKGRFTISRDNAKNTVYLQMNSLRPEDTAVYYCAKGRGSGSYYPLDDYWGQGTQVTVSS
B25: ODY-N1810Hu1 (antibody, V domains shown)
VH: EVQLLESGGGLAQPGGSLRLSCAASGFTFSNYAMSWARQAPGKGLEWVSGIYSDSSGTYYADSVKGRFTISRDNAKNTVYLQMNSLRPEDTAVYYCVKGRGSGSYYPFDDYWGQGTQVTVSS
B26: ODY-N2003Hu1 (antibody, V domains shown)
VH: EVQLVESGGGLVQPGGSLRLSCAASGRKFSTLIMAWYRQAPGKQRELVATIDRDGTTTYADSVKGRFTISRDNAKNTVYLQMNSLRPEDTAVYYCSTLRYWGQGTQVTVSS
B27: ODY-N1998Hu1 (antibody, V domains shown)
VH: EVQLVESGGGLVQPGGSLRLSCAASGRRFSTLIMGWYRQAPGKQRELVATIERGGTPTYADSVKGRFTISRDNAKNTVYLQMNSLRPEDTAVYYCKTLRYWGQGTQVTVSS
B28: ODY-N2000Hu1 (antibody, V domains shown)
VH: EVQLVESGGGLVQPGGSLRLSCAASGRKFSTLIMGWYRQAPGKQRELVATIERDDTTTYADSVKGRFTISRDNAKNTVYLQMNSLRPEDTAVYYCTTLRYWGQGTQVTVSS
B29: ODY-N2001Hu1 (antibody, V domains shown)
VH: EVQLVESGGGLVQPGGSLRLSCAASGRKFSTLIMAWYRQAPGKQRELVATIDRDGTTTYADSVKGRFTISRDNAKNTVYLQMNSLRPEDTAVYYCKTLRYWGQGTQVTVSS
B30: ODY-N1999Hu1 (antibody, V domains shown)
VH: EVQLVESGGGLVQPGGSLRLSCAASGRKFSTLIMGWYRQAPGKQRELVATIERDDTTTYADSVKGRFTISRDNAKNTVYLQMNSLRPEDTAVYYCKTLRYWGQGTQVTVSS

Target: T1, human CD25-extracellular domain …
Experiment: SPR

In order of rising Kd:
1. B4  49 nM
2. B3  66 nM
3. B2  102 nM
4. B1  107 nM

Target: T1, human CD25-extracellular domain …
Experiment: SPR
Remark: another data set of the same source

In order of rising Kd:
1. B8  12 nM
2. B6  13 nM
3. B7  17 nM
4. B5  19 nM

Target: T1, human CD25-extracellular domain …
Experiment: SPR
Remark: another data set of the same source

In order of falling Kd:
1. B12  22 nM
2. B9  13 nM
3. B10  9.4 nM
4. B11  9.4 nM

Target: T1, human CD25-extracellular domain …
Experiment: SPR
Remark: another data set of the same source

In order of rising Kd:
1. B14  11 nM
2. B15  12 nM
3. B13  13 nM

Target: T1, human CD25-extracellular domain …
Experiment: SPR
Remark: another data set of the same source

In order of falling Kd:
1. B17  14 nM
2. B18  11 nM
3. B16  10 nM

target: cCD25; experiment: SPR

In the case of B19, the Kd is reported as 34 nM.

Target: T1, human CD25-extracellular domain …
Experiment: SPR
Remark: another data set of the same source

In order of falling Kd:
1. B21  26 nM
2. B20  20 nM

Target: T1, human CD25-extracellular domain …
Experiment: SPR
Remark: another data set of the same source

In order of rising Kd:
1. B25  62 nM
2. B22  149 nM
3. B23  241 nM
4. B24  348 nM

Target: T1, human CD25-extracellular domain …
Experiment: SPR
Remark: another data set of the same source

Binder B26 has a Kd of 7.6 nM.

Target: T1, human CD25-extracellular domain …
Experiment: SPR
Remark: another data set of the same source

In order of falling Kd:
1. B27  31 nM
2. B29  18 nM
3. B28  14 nM
4. B30  13 nM
